Results from the nanobody polyreactivity screen of Harvey et al. (2022).

test: yeast display, Sf9 membrane polyspecificity reagent, FACS + sequencing; frameworks hold sequencing errors
Outline: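 Polyreactivity labels are assigned by the sorting gate from which each nanobody was recovered. The gates were low and high (top ~1%), set on anti-HA fluorescence for expression and streptavidin fluorescence for reagent binding. Before sorting, galactose-induced (36–48 hours) yeast display cells were stained for 1 hour at 4 °C with 10% biotinylated, detergent-solubilized Sf9 membrane reagent.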

Sequence	polyreactivity (PSR sort gate)
QVQLVESGGGLVQAGGSLRLSCAASGRIILLYTMGWYRQAPGKERELVAAISRSGGITYADSVKGRFTISRDNAKNTVYLQMNSLKPEDTAVYYCAKGGSSHAKGHFDYWGQGTQVTVSS	low polyreactivity
QVQLVESGGGLVQAGGSLRLSCAASGRIILVYAMGWYRQAPGKERELVAAISSGGSTYYADSVKGRLTISRDNAKNTVYLQMNSLKPEDTAVYYCAARTAVGPIRSYWYDYWGQGTQVTVSS	low polyreactivity
QVQLVESGGGLVQAGGSLRLSCAASGRIIPYYAMGWYRQAPGKERELVAAISSSGGRTYYADSVKGRFTISRDNAKNTVYLQMNSLKPEDTAVYYCAAGFPTFGWDKVRFIMYYWGQGTQVTVSS	high polyreactivity
QVQLVESGGGLVQAGGSLRLSCAASGRIIQYNAMGWYRQAPGKERELVAAISWRSGRTYYADSVKGRFTISRDNAKNTVYLQMNSLKPEDTAVYYCAATSRTSWYGYWGQGTQVTVSS	high polyreactivity
QVQLVESGGGLVQAGGSLRLSCAASGRIIRGNAMGWYRQAPGKERELVAAISVRGGNTRYADSVKGRFTISRDNAKNSVYLQMNSLKPEDTAVYFCKKRSYLPEMEYWGQGSQVTVSS	low polyreactivity
QVQLVESGGGLVQAGGSLRLSCAASGRIISSNAMGWYRQAPGKEREFVAAISWRTGSTYYADSVKGRFTISRDNAKNTVYLQMNILKPEDTAVYYCNKRNGSYCYPYYYWGQGTQVTVSS	high polyreactivity
QVQLVESGGGLVQAGGSLRLSCAASGRIISVYAMGWYRQAPGKERELVATITGGNTNYADSVKGRFTISRDNAKNTVYLQMNSLKPEDTAVYYCANQFLPSGVYYEYDSWGQGTQVTVSS	low polyreactivity
QVQLVESGGGLVQAGGSLRLSCAASGRIITAYAMGWNRQAPGKEREFVAAINVSGGSTYYADSVKGRFTISRDNAKNTVYLQMNSLKPEDTAVYYCNADYYYYDIYWWKMDYWGQGTQVTVSS	low polyreactivity
QVQLVESGGGLVQAGGSLRLSCAASGRIITINAMGWYRQAPGKERELVAAITGSAASTYYADSVKGRFTISRDNAKNTVYLQMNILKPEDTAVYYCAVDRRPYSGHGYDYWGQGTQVTVSS	high polyreactivity
QVQLVESGGGLVQAGGSLRLSCAASGRIITKYNTMGCYRPATGIEMELVAAINRSAGSTYYADSVKGRFTISRDNAKNTVYLQMNSLKTEDTAVYYCAAKRGASYGSSLGAPRRHYDEYWGQGTQVTVSS	low polyreactivity
QVQLVESGGGLVQAGGSLRLSCAASGRIITLYAMGWYRQAPGKERELVAGISRSGGSTYYADSVKGRFTISRDNAKNTVYLQMNSLKPEDTAVSYCNAVPIYYAWRRNKPFDYWGQGTQVTVSS	low polyreactivity
QVQLVESGGGLVQAGGSLRLSCAASGRIITYYAMGWYRQAPGKERELVAVISSVGGTYYADSVKGRFTISRDNAKNTVYLQMNSLKPEDTAVYYCAVGKIWSRRSSTSRFGYWGQGTQVTVSS	high polyreactivity
QVQLVESGGGLVQAGGSLRLSCAASGRIIVPYGMGWYRQAPGKERELVAAITTGGSTNYADSVKGRFTISRDNAKNTVYLQMNSLKPEDTAVYYCAVDWYPQLIYSFNSELEYWGQGTQVTVSS	low polyreactivity
QVQLVESGGGLVQAGGSLRLSCAASGRIIWGYAMGWYRQAPGKERELVAGITYSGGSTYYADSVKGRFTISRDNAKNTVYLQMNSLKPEDTAVYYCAAAKSYRSGSWYEYWGQGTQVTVSS	high polyreactivity
QVQLVESGGGLVQAGGSLRLSCAASGRIIWINAMGWDRQAPGKERELVATITKRGGRTYYADSVKGRFTISRDNAKNTVYLQMNSLKPEDTAVYSCNTGHEARHSQYQGGVYQDMGYWGQGTQVTVSS	low polyreactivity
QVQLVESGGGLVQAGGSLRLSCAASGRIIWPYAIGWYRQAPGKERELFATITSGGRTNYADSVKGRFTISRDNAKNTVYLQMNSLKPEDTAVYYCIADHWLYYGAGYDYWGQGTQVTVSS	low polyreactivity
QVQLVESGGGLVQAGGSLRLSCAASGRIIYAYAMGWYRQAPGKERELVAAITIGGNTNYADSVKGRFTISRDNAKNTVYLQMNSLKPEDTAVYYCNARNYYYPWRGYHVVGSNDLGYWGQGTQVTVSS	low polyreactivity
QVQLVESGGGLVQAGGSLRLSCAASGRIIYGNTMGWYRQAPGKEREFVATITRSGGSTYYADSVKGRFTISRDNAKNTVYLQMNSLKPEDTAVYYCNAQPSVYYGRWGLNYVYWGQGTQVTVSS	high polyreactivity
QVQLVESGGGLVQAGGSLRLSCAASGRIIYSNGMGWYRQAPGKERELVAAISSGGSTYNADSVKGRFTISRDNAKNTVYLQMNSLKPEDTAVYYCAADIDYERDRYDYWGQGSQVTVSS	low polyreactivity
QVQLVESGGGLVQAGGSLRLSCAASGRIIYTYEMGWYRQAPGKERELVAAISGSGGSTYYADSVKGRFTISRDNSKTTLYLQMNRLKPEDTGVYYCNGAYYGYENLYKRGYWGQGSQVTVSS	high polyreactivity

Sequence	polyreactivity (PSR sort gate)
QVQLVESGGGLVQAGGSLRLSCAASGRILAGYAMGWYRQAPGKERELVAAITRGGTTYYADSVKGRFTISRDNAKNSVYLQMNSLKPEDTAVVYTVSSAQYDYCGQGTQVTVSS	low polyreactivity
QVQLVESGGGLVQAGGSLRLSCAASGRILAGYAMGWYRQAPGKERELVAVISVGTGSTYYADSVKGRFTISRDNAKNTVYLQMNSLKPEDTAVYYCAADPGPYKELEYGYWGQGTQVTVSS	low polyreactivity
QVQLVESGGGLVQAGGSLRLSCAASGRILAIYAKGWYRQAPGKERELVAGITYSAGSTYYADSVKGRFTISRDNAKNTVYLQMNSLKPEDTAVYYCAALEYNSHRYGYDYWGQGTQVTVSS	low polyreactivity
QVQLVESGGGLVQAGGSLRLSCAASGRILASYAMGWYRQAPGKERELVAAIRYRGSTSYADSVKGRFTISRDNAKNTVYLQMNSLKPEDTAVYYCAAKWHVRGRGARYRYDYDYWGQGTQVTVSS	low polyreactivity
QVQLVESGGGLVQAGGSLRLSCAASGRILASYAMGWYRQAPGKERELVAAISRSGGSTYYADSVKGRFTISRDNAKNTVYLQMNSLKPEDTAVYYCAAKYPQKTPVNSYGILDSWGQGTQVTVSS	high polyreactivity
QVQLVESGGGLVQAGGSLRLSCAASGRILAYYAMAWYRQAPGKERELVAAITSGGGSTYYADSVKGRFTISRDNAKNTVYLQMNSLKPEDTAVYYCAADAYVSSQPMDYWGQGSQVTVSS	high polyreactivity
QVQLVESGGGLVQAGGSLRLSCAASGRILAYYAMGWYRQAPGKERELVARISGSGTSTYYADSVKGRFTISRDNAKNTVYLQMNSLKPEDTGVYYCAATYYRGGRSNGPAWWHEYWGQGTQVTVSS	high polyreactivity
QVQLVESGGGLVQAGGSLRLSCAASGRILAYYVMGWYRQAPGKERELVAGINWSGGSTYYADSVKGRFTISRDNAKHTFYLQMNSLKPEDTGVYNCAARFVGVRDGYYYWGQGTQVTVSS	high polyreactivity
QVQLVESGGGLVQAGGSLRLSCAASGRILDAYTMGWYRQAPGKERQLVAAISASGVSTYYADSVKGRFTISRDNAKNTVYLQMNSLKPEDTAVYYCAKDYYQQTGFLEYDYWGHGTQVTVSS	low polyreactivity
QVQLVESGGGLVQAGGSLRLSCAASGRILDGYAMGWYRQAPGKERELVAAISSRGGRTYYADSVKGRFTISRDNAKNTVYLQMNSLKPEDTAVYYCAADFSKSRRPIRFYYWGQGTQVTVSS	high polyreactivity
QVQLVESGGGLVQAGGSLRLSCAASGRILEGYAMGWYRQAPGKERELVAAISFSTTTTYYADSVKGRFTISRDNAKNTVYLQMNSLKPEDTAVYYCAADSQQSDYDYWGQGTQVTVSS	high polyreactivity
QVQLVESGGGLVQAGGSLRLSCAASGRILFWYAMGWYRQAPGKERELVAAISSSGGSTYYADSVKGRFTISRDNAKNTFYLLMNSLKPEDTAVYYCAADGVVDYGYWFVVEYEYWGQGTQVTVSS	high polyreactivity
QVQLVESGGGLVQAGGSLRLSCAASGRILGFYAMGWYRQAPGKERELVDSINWSGTRTYYADSVKARFTISRDNAKNTVYLQLNSLKPEDTAVYYCAAERYPYGVTYSKLDYWGQGTQVTVSS	high polyreactivity
QVQLVESGGGLVQAGGSLRLSCAASGRILGPNAMGWYRQAPGKERELVAAINSGGSTNYADSVKGRFTISRDNAKNTVYLQMNSLKPEDTAVSYCAPDKARVAGYGVEYDYWGQGTQVTVSS	low polyreactivity
QVQLVESGGGLVQAGGSLRLSCAASGRILGRNAMGWYRQAPGKEREFVAGISYSGTSTYYADSVKGRFTISRDNAKNTVYLQMNSLKPEDTAVYYCAVYTGRQPRVSGKYYYWGQGTQVTVSS	high polyreactivity
QVQLVESGGGLVQAGGSLRLSCAASGRILGRNAMGWYRQAPGKERELVAAISSGGNTYYADSVKGRFTISRDNAKNTVYLQMNSLKPEDTAVYYCNTGTYKDWGQGTQVTVSS	low polyreactivity
QVQLVESGGGLVQAGGSLRLSCAASGRILGRYAMGWYRQEPGKERELVASIRGGGSTNYADSVKGRFTISRDNAKNTVYLQMNSLKPEDTAVYYCAKDYDVRVYEYNYWGQGTQVTVSS	low polyreactivity
QVQLVESGGGLVQAGGSLRLSCAASGRILGYYSMGWYRQAPGKERELVAGITSGGSTYYADSVKGRFTISRDNAKNTVYLQMNSLKPEDTAVYYCATVHGVYQRRYYFWGQGTQVTVSS	high polyreactivity
QVQLVESGGGLVQAGGSLRLSCAASGRILIRKAMGWYRQAPGKERELVAAINRGGGSTYYADSVKGRITISRDNAKNTVYLQMISLNPDDTAVYYCAADRKAGYSRVDGDYWGQGTQVTVSS	low polyreactivity
QVQLVESGGGLVQAGGSLRLSCAASGRILKWYAMGGYRQAPGKVRELVAAISARGGSTFYADSVKGRFTSSRDNAKNTVYLPMNSLKPEDTAVYYCAKRWPYTMYYWGQGTQVTVSS	high polyreactivity
